Measured values published in doi:10.1101/2024.10.27.620470 (bioRxiv, 2024).
Where “and” joins values, the source holds several entries; their conditions need not be identical. Identical values can stand only once.

What was measured:
[1] = target: NTD-N_(41-174) protein double mutant (WV133134AA) (SARS-CoV-2) (UniProt P0DTC9); test: ITC
[2] = target: N-terminal domain of SARS-CoV-2 nucleocapsid protein (NTD-N_(41-174)) (SARS-CoV-2) (UniProt P0DTC9); test: ITC
[3] = target: GFP-tagged G3BP1_(NTF-2) (G3BP1_(NTF-2)-GFP) (human, UniProt Q13283 1-139); test: fluorescence intensity-based PPIs plate assay
[4] = target: NTF2-like domain of Ras GTPase-activating protein SH3-domain-binding protein 1 (G3BP1_(NTF-2)) (human, UniProt Q13283 1-139); test: ITC

## NTF2-like domain of Ras GTPase-activating protein SH3-domain-binding protein 1 (G3BP1_(NTF-2)) (from UniProt Q13283 1-139) (domain or fragment)
[1]
  fold higher KD than the single mutants (V134A and W133A): 2 fold and 4 fold
[2]
  Kd: 5.5 µM

## KAGIIAAATEG [mutant N_(128-138) peptide 3 (KAGIIAAATEG)]
[3]
  binding result: binds

## KDGIIAAATEG [mutant N_(128-138) peptide 2 (KDGIIAAATEG)]
[3]
  binding result: binds

## KDGIIWVATEG [N_(128-138) peptide 1 (KDGIIWVATEG)]
[4]
  Kd: 11.8 µM
